Values quoted from earlier work, collected in article PMC10974892.
pKd: −log10 of the molar value.

Assays:
[1] = target: OmpC (Escherichia coli) (UniProt P06996)
[2] = target: intelectin-1 (hIntL-1) (Homo sapiens) (UniProt Q8WWA0)
[3] = target: PhoE (Escherichia coli) (UniProt P02932)
UniProt P02932, sequence (P02932 22-351): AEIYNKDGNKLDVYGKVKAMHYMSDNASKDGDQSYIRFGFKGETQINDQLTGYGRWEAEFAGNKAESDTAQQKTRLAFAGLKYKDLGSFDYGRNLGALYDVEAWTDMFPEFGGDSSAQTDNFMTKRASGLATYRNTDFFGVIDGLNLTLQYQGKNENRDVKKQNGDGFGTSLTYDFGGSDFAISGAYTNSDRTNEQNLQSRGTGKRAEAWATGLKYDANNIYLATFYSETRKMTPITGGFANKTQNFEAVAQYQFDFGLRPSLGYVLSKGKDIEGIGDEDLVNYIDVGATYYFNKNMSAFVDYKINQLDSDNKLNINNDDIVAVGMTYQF

UniProt Q8WWA0, sequence (Q8WWA0 19-298): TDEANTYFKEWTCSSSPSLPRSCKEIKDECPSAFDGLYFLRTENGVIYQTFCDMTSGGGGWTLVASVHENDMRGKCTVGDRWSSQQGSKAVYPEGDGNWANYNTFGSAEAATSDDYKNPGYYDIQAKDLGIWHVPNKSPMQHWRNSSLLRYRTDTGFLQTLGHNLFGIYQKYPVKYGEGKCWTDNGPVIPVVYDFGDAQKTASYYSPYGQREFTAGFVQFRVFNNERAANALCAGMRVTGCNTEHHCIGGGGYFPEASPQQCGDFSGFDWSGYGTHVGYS
UniProt P06996, sequence (P06996 22-367): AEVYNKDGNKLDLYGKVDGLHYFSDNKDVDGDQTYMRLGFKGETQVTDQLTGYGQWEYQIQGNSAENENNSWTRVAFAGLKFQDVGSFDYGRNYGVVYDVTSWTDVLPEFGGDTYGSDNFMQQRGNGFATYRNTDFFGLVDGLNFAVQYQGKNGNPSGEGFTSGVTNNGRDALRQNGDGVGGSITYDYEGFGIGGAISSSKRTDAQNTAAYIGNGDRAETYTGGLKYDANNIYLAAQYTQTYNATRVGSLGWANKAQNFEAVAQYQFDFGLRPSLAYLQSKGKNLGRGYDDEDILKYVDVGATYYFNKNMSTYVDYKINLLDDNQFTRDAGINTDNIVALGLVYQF

In the case of lactoferrin (from UniProt P02788), the pKd [1] is listed as 7.41, the pKd [2] is listed as 6.30 and the pKd [3] is listed as 6.99.
